The data set relates to K4 kissing-loop RNA reporter. The data set is described as follows: apparent KD of K4 kissing-loop reporter; higher = weaker reporter binding. The settings on record: Eterna round: R107. As for the experimental part: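 RNA-MaP round R107: designed RNA switches with theophylline, tryptophan, arginine or FMN aptamers are transcribed on-chip within common flanks. They are titrated with a labelled K4 kissing-loop RNA reporter in RNA-MaP buffer (100 mM Tris pH 7.5, 80 mM KCl, 4 mM MgCl2), without ligand or with the indicated ligand. Median apparent KD per design.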

Setting [1] is: input ligand: theophylline 20 uM.
The mark [2] stands for this setting: input ligand: tryptophan 2.4 mM.
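Note: bound reporter read as fluorescence of individual clusters on recovered sequencing chips by microscopy, with normalized cluster intensities fitted with a binding model.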

As to “AAUAAGGUCGCCGAUACCAGCGCGGGCAGAGCAAAGCUCUGCCCGGUAGUGAUGUUACCGCGCCCUUGGCAGCGGUGGCACGACC [Omei KL Theo B SS C v6]”, the “apparent KD of K4 kissing-loop reporter” value came out at 152 nM (input ligand: FMN 200 uM); 58.3 nM (input ligand: arginine 13.2 mM); 126 nM (input ligand: none); 159 nM under setting [1]; 63.3 nM under setting [2].
With “AAUAAUAAUAAAUAUAGAUUGAUGAGCAAACGAGGACCGGUACGGCCGCCACUCGAGUGAUGUUCGAGAAGCUCAUCAAUCAUAA [AK4.6 Exc Tryptophan A]”, the “apparent KD of K4 kissing-loop reporter” value (input ligand: FMN 200 uM) came out at 180 nM; the “apparent KD of K4 kissing-loop reporter” value (input ligand: arginine 13.2 mM) turned out to be 131 nM; the “apparent KD of K4 kissing-loop reporter” value (input ligand: none) came to 141 nM; the “apparent KD of K4 kissing-loop reporter” value under setting [1] was 141 nM; the “apparent KD of K4 kissing-loop reporter” value under setting [2] worked out at 372 nM.
As for “AAUAAUCUAGGUGAUACCAGCUCAACAUGAGUGAUGUUCGUGAGCUAAUGUAGAGUUGAGAGCCCUUGGCAGCACCUAGAUAAUA [KL-SSTheoB7]”, the “apparent KD of K4 kissing-loop reporter” value came to 698 nM (input ligand: FMN 200 uM); 552 nM (input ligand: arginine 13.2 mM); 943 nM (input ligand: none); 1140 nM under setting [1]; 626 nM under setting [2].
Turning to “AAUAUCUAGUAUAUUUUUAAUAAAACAGAUACCAGUGAUAAUAGACACCCUUGGCAGCUGGUCGAGUGAUGUUCGUUUAUUUUAA [JR_SSTheophyA_Sub005]”, the “apparent KD of K4 kissing-loop reporter” value runs as follows: (input ligand: FMN 200 uM) 82.5 nM; (input ligand: arginine 13.2 mM) 79.5 nM; (input ligand: none) 105 nM; under setting [1], 168 nM; under setting [2], 60 nM.
For “AAUCAAUACAGAAGGAGCGUGACAGUUGCGAGUGUAAUUUUAGCUAGUGAUGUUAGCAUUUCACAGGUAGGUCGCUGUACAUUUA [#05 K4 Arginine B Same State]”, in that order: 115 nM, 134 nM, 133 nM, 140 nM and 105 nM.
For “AAUCGCGAGUCAGAUACCAGUUGGCUCGAGAGUCAGUGAUGUUGAUGUAAAUCUUAGGCGAACCCUUGGCAGCUGUCACCAGUCC [theeternabot_sameState_KL_Theo_B_27]”, in that order: 404 nM, 326 nM, 354 nM, 346 nM and 325 nM.
For “AAUCUCGUCCUGGAUACCAGUCGCACGGUUUGUCAUGUCAGCCAGUGAUGUUGCCUGCAUGACCCUUGGCAGCCAUUCUAUGAAU [theeternabot_exclusion_KL_Theo_B_45]”, in that order: 284 nM, 230 nM, 311 nM, 334 nM and 246 nM.
Regarding “AAUGAUGAUUGACACAUUUACUAAAAGGAAGGAGCGGCGAUGUGGCCAGGUAGGUCGCCUUUUAGCAGUGAUGUUGCUAUAUGUU [JR_Nu_ExcArginiA_Sub026]”, the “apparent KD of K4 kissing-loop reporter” value runs as follows: (input ligand: FMN 200 uM) 84.5 nM; (input ligand: arginine 13.2 mM) 108 nM; (input ligand: none) 111 nM; under setting [1], 152 nM; under setting [2], 70.4 nM.
For the sequence “AAUGUAAUGACGGCCGCCACUGAUUACCAGUGAUGUUGGUAAAGAACUUUAUAAGUCCUGGAAACCAGGACCGGGUCAACGGUCC [Tryp B Ex t1]”, the “apparent KD of K4 kissing-loop reporter” value runs as follows: (input ligand: FMN 200 uM) 345 nM; (input ligand: arginine 13.2 mM) 294 nM; (input ligand: none) 318 nM; under setting [1], 309 nM; under setting [2], 258 nM.
For “AAUGUAUACUGAAGGAGCGAGUAGUGGAAACAUAAACUCAAUGCGAGUGAUGUUCGCAGUACUCAGGUAGGUCGCAGUAAUGGUA [Exclusion Arginine B Gf 8]”, in that order: 522 nM, 311 nM, 537 nM, 468 nM and 406 nM.
The like results for “AAUGUGCAGGGAAGGAGCGUAGUCCAGUGAUGUUGGAGUUAAAUACCAGUGAUGUUGGUUAUACAGGUAGGUCGCCCUAAAGCGC [Exclusion Arginine B Gf 5]” were, in that order, 73.5 nM, 67.7 nM, 81.3 nM, 98.3 nM and 71 nM.
The like results for “AAUUAAUACAGAAGGAGCGUGUAUUUAACUACAAUUAUCUUAGCGAGUGAUGUUCGUUUUACACAGGUAGGUCGCUGUAUAUUUA [JR_ExcArginiB_Sub010]” were, in that order, 201 nM, 279 nM, 235 nM, 262 nM and 157 nM.
On to “AAUUCUUAUCUUAGUAGAUUUCUAAUUAAACGAGGACCGGUACGGCCGCCACUCGGUUAUGAGUGAUGUUCAUGGAAUUACAUAA [JR_SSTryptoA_Sub018]”, for which the “apparent KD of K4 kissing-loop reporter” value runs as follows: (input ligand: FMN 200 uM) 285 nM; (input ligand: arginine 13.2 mM) 486 nM; (input ligand: none) 467 nM; under setting [1], 486 nM; under setting [2], 172 nM.
“AAUUUAUUAACUGAUACCAGACUUAAUAAAUUGUAAAUUACUAGUGAUGUUAGUGAAUUUGUCCCUUGGCAGCAGUAUUUAUUAA [JR_ExcTheophyB_Sub009]”: the “apparent KD of K4 kissing-loop reporter” value by setting is: (input ligand: FMN 200 uM) 123 nM; (input ligand: arginine 13.2 mM) 133 nM; (input ligand: none) 124 nM; under setting [1], 141 nM; under setting [2], 106 nM.
The like results for “AAUUUGGGUUCGGCCGCCACUCCAGUGAUGUUGGAUGGCGAAAUAAAGGCUAGACCAGGUUGCCGGAGGACCGGGAAUCCUGUAC [Qumabi]” were, in that order, 182 nM, 152 nM, 164 nM, 139 nM and 112 nM.
The like results for “ACAUCGGUUGAGAGUGAUGUUCCUUGUGUUCGAGGACCGGUACGGCCGCCACUCGGGUAGAAAAUAACAGAUGUGUUUCAUUUUU [BDazzled - #17 SS Tryptophan A]” were, in that order, 180 nM, 93.2 nM, 141 nM, 277 nM and 271 nM.
As for “ACCUCACAGUGAUGUUGUGAGCCGAUAGUGAAGGAUAUUGUAAAGUCAAGAAGGUCAUGUCAGUCACAAAACGUUAAGCCUCGCA [theeternabot_exclusion_KL_FMN_A_19]”, the “apparent KD of K4 kissing-loop reporter” value (input ligand: FMN 200 uM) is 275 nM; the “apparent KD of K4 kissing-loop reporter” value (input ligand: arginine 13.2 mM) was 218 nM; the “apparent KD of K4 kissing-loop reporter” value (input ligand: none) was 254 nM; the “apparent KD of K4 kissing-loop reporter” value under setting [1] worked out at 266 nM; the “apparent KD of K4 kissing-loop reporter” value under setting [2] is 194 nM.
In the case of “ACGAAAUGCGACUCCUAGUUACACCGGGAAGGAGCGCGGAUAACCGCAGGUAGGUCGCCCGGAAGCCGGACCAGUGAUGUUGGUC [Exclusion Arginine A Gf 27]”, the “apparent KD of K4 kissing-loop reporter” value is 240 nM (input ligand: FMN 200 uM); 273 nM (input ligand: arginine 13.2 mM); 182 nM (input ligand: none); 165 nM under setting [1]; 217 nM under setting [2].
Turning to “ACGACGCAUAGUGAUACCAGCAUUAUAUGAGUGAUGUUCUACCUAAAAUGGUAAUAAUGAUGCCCUUGGCAGCACUAUGCGUCAG [KL-SSTheoB2]”, the “apparent KD of K4 kissing-loop reporter” value (input ligand: FMN 200 uM) turned out to be 400 nM; the “apparent KD of K4 kissing-loop reporter” value (input ligand: arginine 13.2 mM) stood at 453 nM; the “apparent KD of K4 kissing-loop reporter” value (input ligand: none) was 461 nM; the “apparent KD of K4 kissing-loop reporter” value under setting [1] turned out to be 638 nM; the “apparent KD of K4 kissing-loop reporter” value under setting [2] amounted to 283 nM.
As for “ACGACUGGAUGAAUAACAUCUAGUCGAGAUCGAGGACCGGUACGGCCGCCACUCGAGCUAACUGCGAGUGAUGUUCGAUAAUAAA [#OpenEnded 2]”, the “apparent KD of K4 kissing-loop reporter” value (input ligand: FMN 200 uM) worked out at 277 nM; the “apparent KD of K4 kissing-loop reporter” value (input ligand: arginine 13.2 mM) was 302 nM; the “apparent KD of K4 kissing-loop reporter” value (input ligand: none) came to 253 nM; the “apparent KD of K4 kissing-loop reporter” value under setting [1] was 200 nM; the “apparent KD of K4 kissing-loop reporter” value under setting [2] is 88.4 nM.
Consider “ACGCGCGAGACGGCCGCCACUAUACGUCGAGUGAUGUUCGAGCCAAGAUGUCGUUACGUUUAUAAUAGGACCGGGUCAAUGGAUU [theeternabot_sameState_KL_Trp_B_19]”, for which the “apparent KD of K4 kissing-loop reporter” value amounted to 596 nM (input ligand: FMN 200 uM); 512 nM (input ligand: arginine 13.2 mM); 583 nM (input ligand: none); 661 nM under setting [1]; 513 nM under setting [2].
